Experimental data from PMC6140506 (Proceedings of the National Academy of Sciences of the …, 2018).
Where two headings read alike, the source gives them in different places.

B1: 102.1F10 IgE (antibody, V domains shown)
VH: QVQLVQSGAEVRNPGASVKVSCKASGYTFTSYAIHWVRQAPGHRLEWVGRINTDNGNTKYSQKFHGRVALSRDTSASTTYMDLSSLNSEDTAVYYCARAFYYSSGVMFDSWGQGALVTVSS
VL: QSALTQPPSVSGAPGQRVSISCTGGSSNFGAGYDVHWYQQLPATAPKLLIYGNNNRPSGVPDRFSGSKSGTSASLAITGLQAEDEGDYFCQSFDTSLSGWIFGGGTKLTVL
B2: 102.1F10 Fab (Fab, V domains shown)
VH: B1 VH
VL: B1 VL

What was measured:
Assay in all cases: SPR
[1] = target: T1, Ole e 3 (Olea europaea (common olive), UniProt O81092)
[2] = target: Bet v 4 (UniProt Q39419)
Bet v 4, sequence (Q39419 whole entry): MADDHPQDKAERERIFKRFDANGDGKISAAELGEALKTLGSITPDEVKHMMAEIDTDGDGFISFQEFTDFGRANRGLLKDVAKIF

[3] = target: Phl p 7 wild-type (Timothy grass, UniProt O82040)
Phl p 7 wild-type, sequence (O82040 whole entry): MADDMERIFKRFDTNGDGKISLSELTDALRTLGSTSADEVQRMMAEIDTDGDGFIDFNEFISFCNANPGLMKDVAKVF

[4] = target: T1, Ole e 3; remark: listed apart in the source
[5] = target: Bet v 4 (UniProt Q39419); remark: listed apart in the source

| Binder | binding result [1] | fold weaker binding than Phl p 7 [2] | Kd [3] | binding result [4] | fold weaker binding than Phl p 7 [5] |
| --- | --- | --- | --- | --- | --- |
| B1 | binds | 1000 fold | 0.17 nM |  |  |
| B2 |  |  |  | binds | 1000 fold |
